Assay results published in article PMC2148214 (The Journal of Cell Biology, 1999).

Target: the molecule itself
Assay: velocity gradient sedimentation

B1: wild-type HTLV-1 envelope precursor glycoprotein (natural protein, UniProt P03381 21-488, looked up)
chain: DYSPSCCTLTIGVSSYHSKPCNPAQPVCSWTLDLLALSADQALQPPCPNLVSYSSYHATYSLYLFPHWTKKPNRNGGGYYSASYSDPCSLKCPYLGCQSWTCPYTGAVSSPYWKFQHDVNFTQEVSRLNINLHFSKCGFPFSLLVDAPGYDPIWFLNTEPSQLPPTAPPLLPHSNLDHILEPSIPWKSKLLTLVQLTLQSTNYTCIVCIDRASLSTWHVLYSPNVSVPSSSSTPLLYPSLALPAPHLTLPFNWTHCFDPQIQAIVSSPCHNSLILPPFSLSPVPTLGSRSRRAVPVAVWLVSALAMGAGVAGGITGSMSLASGKSLLHEVDKDISQLTQAIVKNHKNLLKIAQYAAQNRRGLDLLFWEQGGLCKALQEQCRFPNITNSHVPILQERPPLENRVLTGWGLNWDLGLSQWAREALQTGITLVALLLLVILAGPCILRQLRHLPSRVRYPHYSLIKPESSL
With B1 the “stoichiometry N” value was 2.
